Data taken from US20190023785A1 (SHANGHAI JIAOTONG UNIVERSITY, published 2019).

Assays:
[1] = biological target: GLP-1R expressed on CRE-Luc/GLP-1R HEK293 cells
hFcRn&b2M protein = biological target: T1, hFcRn&b2M protein (human, UniProt P61769 21-119, limits assumed); test: binding affinity to hFcRn & b2M at pH 6.0, method not named; pH 6.0; soluble hFcRn & b2M as ligand
T1 construct: also called hFcRn&β2M; human FcRn protein
T1 sequence (chain, as listed by the source limits assumed, chain 1 of 2): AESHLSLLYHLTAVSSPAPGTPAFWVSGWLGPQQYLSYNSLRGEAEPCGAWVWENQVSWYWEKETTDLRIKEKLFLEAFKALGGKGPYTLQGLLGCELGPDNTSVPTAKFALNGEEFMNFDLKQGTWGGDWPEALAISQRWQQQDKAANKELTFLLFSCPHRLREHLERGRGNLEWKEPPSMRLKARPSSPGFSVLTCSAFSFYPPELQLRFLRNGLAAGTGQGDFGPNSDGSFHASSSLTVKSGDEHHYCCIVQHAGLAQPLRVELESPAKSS
T1 sequence (P61769 21-119 limits assumed, chain 2 of 2): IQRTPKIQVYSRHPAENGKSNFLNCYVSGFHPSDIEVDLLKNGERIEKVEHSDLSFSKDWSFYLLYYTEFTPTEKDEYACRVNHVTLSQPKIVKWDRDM

## GLP-1 (peptide)
[1]
  EC50, relative luciferase activity in CRE-Luc/GLP-1R HEK293 reporter cells: 3.89 nM

B1: FnAb12 single chain antibody (scFv)
scFv: DIQLTQSPSSLSASVGDRVTLTCQATQDIDNNLNWYQQKPGKAPKLLIYDASNLETGVPSRFSGSGSGTDFTFTISDLQPEDVATYYCQQYYNLPLTFGGGTKVDIKRSRGGGGSGGGGSGGGGSLEMAEVQLVQSGAEVKKPGASVKVSCKASGYTFTSYDINWVRQATGQGLEWMGWMNPNSGNTGYAQKFQGRVTMTRNTSISTAYMELSSLRSEDTAVYYCARGVDLGDGWGQGTLVTVSS
notes: Single chain antibody from a phage library
hFcRn&b2M protein
  Kd: 15 nM
